Experimental findings from patent US20080166345A1, “MEDICAMENTS COMPRISING GENE RECOMBINANT ANTIBODY AGAINST GANGLIOSIDE GD3” (KYOWA HAKKO KOGYO CO., LTD., priority 2001, published 2008) are described below.

The test system of one experiment is B16-29-10. Put plainly: Fluorescent antibody technique (flow cytometer), GD3 synthase transfectant. It counts as binding, mouse. Particulars: antibody 5 μg/ml; FIG. 3. On the procedure:
(§1) Each of 1×10^6 cells of the GD3 synthase gene transfectants B16-8-3 and B16-29-10 obtained in b. of the item (2) of Example 1 and the parent cell line B16-F10 cell were suspended in PBS, put into a microtube (manufactured by Treff) and centrifuged (2,000 rpm for 2 minutes) for washing the cells, 50 μl of the anti-GD3 human chimeric antibody KM871 (a solution prepared by adjusting to 5 μg/ml with 1% BSA-PBS, negative control was 1% BSA-PBS alone) was added thereto, followed by stirring, and the reaction was carried out at 4° C. for 1 hour. After the reaction and subsequent washing with PBS by centrifugation three times, 100 μl of biotin-labeled goat anti-human IgG (H+L) solution (manufactured by VECTOR, used by diluting 400 folds with 1% BSA-PBS) was added thereto, followed by stirring, and the reaction was carried out at 4° C. for 1 hour. After washing with PBS by centrifugation three times, 100 μl of a streptoavidin-labeled Cy5 pigment solution (Streptoavidin-RED670 manufactured by GIBCO, used by diluting 100 folds with 1% BSA-PBS) was added thereto, followed by stirring, and the reaction was carried out at 4° C. for 30 minutes. After the reaction and subsequent washing with PBS by centrifugation three times, the cells were again suspended in PBS to carry out the analysis using a flow cytometer EPICS Elite (manufactured by COULTER).

In a further experiment the test system is B16-8-3. Described as above. It counts as binding, mouse. Particulars: antibody 5 μg/ml; FIG. 3. How it is done:
as §1

The next experiment concerns B16-F10 cell. As to the kind of experiment: Fluorescent antibody technique (flow cytometer), parent cell line. It counts as binding, mouse. To be noted: antibody 5 μg/ml; FIG. 3. How it is done: as §1
In experiment [1] the test system is human melanoma culture cell line G-361. Put plainly: Reactivity with human cancer cell (immunofluorescent method). It counts as binding. To be noted: antibody 5 μg/ml; FIG. 23. How it is done: (§2) Reactivity of purified anti-GD3 CDR-grafted antibodies KM8869, KM8870 and KM8871 with human cancer cells was measured as follows. That is, 1×10^6 cells of each of human melanoma culture cell lines G-361 (ATCC CRL 1424) and SK-MEL-28 (ATCC HTB72) were suspended in PBS, put into microtubes and centrifuged (2,000 rpm for 2 minutes), and the thus washed cells were stirred after adding 50 μl of the anti-GD3 chimeric antibody KM871 or the anti-GD3 CDR-grafted antibody, KM8869, KM8870 or KM8871 (a solution adjusted to 5 μg/ml with 1% BSA-PBS) and then allowed to react at 4° C. for 1 hour. After the reaction, followed by centrifugation three times with PBS for washing, 20 μl of rabbit anti-human IgG (H+L) F(ab′)2 solution (manufactured by Wako Pure chemical Industries, used by diluting 30 folds with 1% BSA-PBS) fluorescence-labeled with fluorescein isothiocyanate (hereinafter referred to as “FITC”) was added thereto, followed by stirring, and then the reaction was carried out at 4° C. for 1 hour. After the reaction, followed by centrifugation three times with PBS for washing, the cells were again suspended in PBS to carry out the analysis using a flow cytometer EPICS Elite (manufactured by COULTER). As a control, the analysis was carried out by the same procedure without adding antibodies.

The subject of experiment [2] is human melanoma culture cell line SK-MEL-28. The description is as above. Particulars: antibody 5 μg/ml; FIG. 23. It counts as binding. How it is done:
as §2

Experiment [3] relates to human melanoma culture cell line G-361. Put plainly: In vitro cytotoxic activity (CDC activity), 51Cr release. To be noted: antibody 0.05 to 50 μg/ml, human complement; FIG. 24. The class given is cell-based. How it is done: (§3) Each of human melanoma culture cell lines, G-361 (ATCC CRL 1424) and SK-MEL-28 (ATCC HTB72), was cultured in RPMI1640-FBS(10) medium and adjusted to 5×10^6 cells, and the cells were isotope-labeled by adding 3.7 MBq equivalent of a radioactive substance Na2^51CrO4 and carrying out the reaction at 37° C. for 1 hour. After the reaction, the cells were washed three times by their suspension in RPMI1640-FBS(10) medium and centrifugation, re-suspended in the medium and then incubated in ice at 4° C. for 30 minutes to thereby spontaneously release the radioactive substance. […]
(§4) To each well of a 96 well U bottom plate (manufactured by Falcon), 50 μl of the target cell suspension prepared in “a.” was added (5×10^4 cells/well), and then the anti-GD3 chimeric antibody KM871 or the anti-GD3 CDR-grafted antibody, KM8869, KM8870 or KM8871, was added to give a final concentration of 0.05 to 50 μg/ml and allowed to react at room temperature for 30 minutes. […] After centrifugation, the amount of ^51Cr released in the supernatant was measured by a γ-counter. The amount of the spontaneously dissociated ^51Cr was calculated by carrying out the same procedure using the medium alone instead of the antibody solution and complement solution and measuring the amount of ^51Cr in the supernatant. […] The CDC activity was calculated by the following equation.

Experiment [4] relates to human melanoma culture cell line SK-MEL-28. The description is as above. It counts as cell-based. Particulars: antibody 0.05 to 50 μg/ml, human complement; FIG. 24. How it is done: as §3, §4

B1: KM871: anti-GD3 human chimeric antibody; VH SEQ ID NO:49, VL SEQ ID NO:50, human IgG1 and κ C regions (antibody, listed as Mus musculus, V domains shown)
VH: EVTLVESGGDFVKPGGSLKVSCAASGFAFSHYAMSWVRQTPAKRLEWVAYISSGGSGTYYSDSVKGRFTISRDNAKNTLYLQMRSLRSEDSAMYFCTRVKLGTYYFDSWGQGTTLTVSS
VL: DIQMTQTASSLPASLGDRVTISCSASQDISNYLNWYQQKPDGTVKLLIFYSSNLHSGVPSRFSGGGSGTDYSLTISNLEPEDIATYFCHQYSKLPWTFGGGTKLEIKR
modifications: human IgG1 and kappa constant regions
Turning to B1, the reactivity with cells entry is “reacted” with B16-29-10; “reacted” in the experiment on B16-8-3; “did not show reactivity” in the experiment with B16-F10 cell; “showed the reactivity” in experiment [1]; “showed the reactivity” in experiment [2]. Besides, the results for the CDC activity result in experiment [3] and in experiment [4] were “remarkably strong cytotoxic activity” and “show the CDC activity”, respectively.
